Data published in article PMC5333127, “RD26 mediates crosstalk between drought and brassinosteroid signalling pathways” (Nature Communications, 2017).

T1: RD26 (ANAC072) (Arabidopsis thaliana, UniProt Q93VY3 1-297)
T1 sequence: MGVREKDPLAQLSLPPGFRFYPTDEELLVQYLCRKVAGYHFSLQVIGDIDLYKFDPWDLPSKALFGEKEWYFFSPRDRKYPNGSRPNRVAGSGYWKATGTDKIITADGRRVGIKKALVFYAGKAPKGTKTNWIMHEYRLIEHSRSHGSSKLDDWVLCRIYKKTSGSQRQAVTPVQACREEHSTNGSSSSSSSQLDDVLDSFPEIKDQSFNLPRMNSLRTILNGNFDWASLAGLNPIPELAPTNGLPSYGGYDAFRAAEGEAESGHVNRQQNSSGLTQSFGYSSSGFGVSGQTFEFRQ

T2: GST-tagged RD26 DNA-binding/dimerization domain (aa 1-140) (Arabidopsis, UniProt Q93VY3 1-140)
T2 construct: also called RD26 (1-140); source: recombinant protein, purified; pET-42a (Novagen)
T2 sequence (looked up): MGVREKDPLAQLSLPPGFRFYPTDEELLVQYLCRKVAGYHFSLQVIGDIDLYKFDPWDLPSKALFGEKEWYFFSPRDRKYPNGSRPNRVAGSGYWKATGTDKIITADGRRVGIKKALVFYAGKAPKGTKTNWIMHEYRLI

T3: MBP-BES1, full-length BES1 (BRI1 EMS SUPPRESSOR 1) (Arabidopsis, UniProt Q9LN63 1-335)
T3 construct: BES1 (BRI1 EMS SUPPRESSOR 1), BES1/BZR1 family transcription factor of Arabidopsis, full length; also called BES1 FL; source: recombinant protein, purified; pETMALc-H
T3 sequence (looked up): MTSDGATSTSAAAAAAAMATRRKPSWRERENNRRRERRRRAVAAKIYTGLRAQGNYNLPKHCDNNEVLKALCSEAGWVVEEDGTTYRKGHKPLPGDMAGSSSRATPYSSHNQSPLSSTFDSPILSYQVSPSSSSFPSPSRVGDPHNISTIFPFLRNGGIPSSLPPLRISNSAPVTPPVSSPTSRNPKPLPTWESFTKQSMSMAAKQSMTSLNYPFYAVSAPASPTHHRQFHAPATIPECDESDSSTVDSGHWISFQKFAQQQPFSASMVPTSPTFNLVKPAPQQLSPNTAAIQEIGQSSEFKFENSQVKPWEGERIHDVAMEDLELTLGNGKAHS

B1: At4g18010 BRRE WT (dsDNA)
DNA 1: AAACCGAAAACACGTGTGAGAAAGAAGAAA
DNA 2: TTTCTTCTTTCTCACACGTGTTTTCGGTTT
B2: At4g18010 BRRE MU (dsDNA)
DNA 1: AAACCGAAAACATTTTTTAGAAAGAAGAAA
DNA 2: TTTCTTCTTTCTAAAAAATGTTTTCGGTTT
B3: At4g00360 E-box WT (dsDNA)
DNA 1: ATTACCTAACTATACATGTGTAATGTGTTC
DNA 2: GAACACATTACACATGTATAGTTAGGTAAT
B4: MBP-tagged BES1 DNA-binding/dimerization domain (aa 1-89) (domain or fragment, Arabidopsis, UniProt Q9LN63 1-89, looked up)
chain: MTSDGATSTSAAAAAAAMATRRKPSWRERENNRRRERRRRAVAAKIYTGLRAQGNYNLPKHCDNNEVLKALCSEAGWVVEEDGTTYRKG
notes: also called BES1 (1-89); source: recombinant protein, purified; pETMALc-H
B5: At4g00360 E-box MU (dsDNA)
DNA 1: ATTACCTAACTATAAAAAAATAATGTGTTC
DNA 2: GAACACATTATTTTTTTATAGTTAGGTAAT
B6: GST-RD26, full-length RD26 (RESPONSIVE TO …ON 26) (natural protein, Arabidopsis, UniProt Q93VY3 1-297, looked up)
chain: T1 sequence
notes: RD26 (ANAC072), NAC family transcription factor of Arabidopsis, full length; also called ANAC072; RD26 FL; source: recombinant protein, purified; pET-42a (Novagen)

How the values were obtained:
BES1;RD26 (ANAC072) [1] = target: T4, BES1;RD26 (ANAC072) (Arabidopsis thaliana;Arabidopsis …, UniProt Q9LN63;Q93VY3 1-335;1-297, |); assay: EMSA; stronger than either protein alone; proposed heterodimer; 25 mM HEPES-KOH pH 8.0, 1 mM DTT, 50 mM KCl, 10% glycerol, 20 μl, about 0.2 ng probe, 40 min on ice; 5% native PAGE in 1x TGE; conditions: protein: recombinant;recombinant; copies: 1;1; label: 32P 5' end; blunt
BES1 = BES1 (Arabidopsis thaliana, UniProt Q9LN63 1-335); assay: EMSA; 25 mM HEPES-KOH pH 8.0, 1 mM DTT, 50 mM KCl, 10% glycerol, 20 μl, about 0.2 ng probe, 40 min on ice; 5% native PAGE in 1x TGE; conditions: protein: recombinant; chain copies: 2; label: 32P 5' end; blunt
RD26 (ANAC072) = target: T1, RD26 (ANAC072); assay: as above; conditions: protein: recombinant; chain copies: 2; label: 32P 5' end; blunt
BES1;RD26 (ANAC072) [2] = target: T4, BES1;RD26 (ANAC072); assay: as above; conditions: protein: recombinant;recombinant; copies: 1;1; label: 32P 5' end; blunt
BES1;RD26 (ANAC072) [3] = target: T4, BES1;RD26 (ANAC072); assay: EMSA; synergistic; proposed heterodimer; 25 mM HEPES-KOH pH 8.0, 1 mM DTT, 50 mM KCl, 10% glycerol, 20 μl, about 0.2 ng probe, 40 min on ice; 5% native PAGE in 1x TGE; conditions: protein: recombinant;recombinant; copies: 1;1; label: 32P 5' end; blunt
[4] = target: T2, GST-tagged RD26 …; assay: pull-down; GST pull-down; GST-tagged RD26 (full length or 1-140) or GST as bait, MBP-tagged BES1 (full length or 1-89) as prey; MBP-BES1 detected by anti-MBP antibody; 20% input shown; conditions: both partners purified
[5] = target: T3, MBP-BES1, full-length BES1 (BRI1 EMS …); assay: as above; conditions: both partners purified

Binder	binding result (BES1)	binding result (RD26 (ANAC072))	binding result (BES1;RD26 (ANAC072) [2])	also measured
B1	binds			binding result (BES1;RD26 (ANAC072) [1]): binds
B2	no binding	no binding	no binding	
B3	binds	binds		binding result (BES1;RD26 (ANAC072) [3]): binds
B4				binding result [4]: binds
B5			no binding	
B6				binding result [5]: binds
